Source: PMC7851853

Columns and labels:
[1] = biological target: actin filaments grown from rabbit skeletal muscle actin (unlabeled ADP-F-actin) (rabbit) (UniProt P68135); assay: TIRF microscopy with microfluidics
[2] = biological target: actin filaments grown from rabbit skeletal muscle actin (unlabeled ADP-F-actin) (rabbit) (UniProt P68135); assay: single-molecule TIRF microscopy

mNeonGreen–Tpm1.8 (tropomyosin isoform Tpm1.8 fused at its N-terminus to an alanine–serine extension and to mNeonGreen) (natural protein)
BB, rate constant of binding to the domain edge at the barbed end (length) [1]: 1.19 m⋅M^-1⋅s^-1
BBP, combined binding rate constant at both domain edges (length) [1]: 1.83 m⋅M^-1⋅s^-1
BBP, combined binding rate constant at both domain edges (molecules) [1]: 5.6e+07 M^-1⋅s^-1
BP, rate constant of binding to the domain edge at the pointed end (length) [1]: 0.64 m⋅M^-1⋅s^-1
RB, rate of release from the domain edge at the barbed end (length) [1]: 1.98e-09 m⋅s^-1
RB, rate of release from the domain edge at the barbed end (molecules) [1]: 0.061 s⁻¹
RBP, combined release rate at both domain edges (length) [1]: 3.05e-09 m⋅s^-1
RBP, combined release rate at both domain edges (molecules) [1]: 0.094 s⁻¹
RP, rate of release from the domain edge at the pointed end (length) [1]: 1.07e-09 m⋅s^-1
RP, rate of release from the domain edge at the pointed end (molecules) [1]: 0.033 s⁻¹
critical concentration for elongation (affinity at the domain edge) [1]: 1.65 nM
half-life of a molecule bound at the domain edge at the barbed end [1]: 11 s
half-life of a molecule bound at the domain edge at the pointed end [1]: 21 s
Kd of an isolated Tpm1.8 molecule on the actin filament (RI/BI) [2]: 500 µM
RI, rate of release of an isolated Tpm from the actin filament (length) [2]: > 4.13e-08 m⋅s^-1
RI, rate of release of an isolated Tpm from the actin filament (molecules) [2]: > 1.25 s⁻¹
half-life of the complex of an isolated Tpm1.8 molecule and the actin filament [2]: < 0.6 s
